From publication PMC10516938, “Conformational dynamics of cohesin/Scc2 loading complex are regulated by Smc3 acetylation and ATP binding” (Nature Communications, 2023)

Molecular target: T1, Smc3^QQ R1008I K1004C (S. cerevisiae, UniProt P47037 1-1230, K112Q | K113Q | K1004C | R1008I)
T1 construct: Smc3, S. cerevisiae; also called smc3-QQ K1004C with R1008I; source: S. cerevisiae W303, late G1 arrested cells, whole-cell extract
T1 sequence (looked up): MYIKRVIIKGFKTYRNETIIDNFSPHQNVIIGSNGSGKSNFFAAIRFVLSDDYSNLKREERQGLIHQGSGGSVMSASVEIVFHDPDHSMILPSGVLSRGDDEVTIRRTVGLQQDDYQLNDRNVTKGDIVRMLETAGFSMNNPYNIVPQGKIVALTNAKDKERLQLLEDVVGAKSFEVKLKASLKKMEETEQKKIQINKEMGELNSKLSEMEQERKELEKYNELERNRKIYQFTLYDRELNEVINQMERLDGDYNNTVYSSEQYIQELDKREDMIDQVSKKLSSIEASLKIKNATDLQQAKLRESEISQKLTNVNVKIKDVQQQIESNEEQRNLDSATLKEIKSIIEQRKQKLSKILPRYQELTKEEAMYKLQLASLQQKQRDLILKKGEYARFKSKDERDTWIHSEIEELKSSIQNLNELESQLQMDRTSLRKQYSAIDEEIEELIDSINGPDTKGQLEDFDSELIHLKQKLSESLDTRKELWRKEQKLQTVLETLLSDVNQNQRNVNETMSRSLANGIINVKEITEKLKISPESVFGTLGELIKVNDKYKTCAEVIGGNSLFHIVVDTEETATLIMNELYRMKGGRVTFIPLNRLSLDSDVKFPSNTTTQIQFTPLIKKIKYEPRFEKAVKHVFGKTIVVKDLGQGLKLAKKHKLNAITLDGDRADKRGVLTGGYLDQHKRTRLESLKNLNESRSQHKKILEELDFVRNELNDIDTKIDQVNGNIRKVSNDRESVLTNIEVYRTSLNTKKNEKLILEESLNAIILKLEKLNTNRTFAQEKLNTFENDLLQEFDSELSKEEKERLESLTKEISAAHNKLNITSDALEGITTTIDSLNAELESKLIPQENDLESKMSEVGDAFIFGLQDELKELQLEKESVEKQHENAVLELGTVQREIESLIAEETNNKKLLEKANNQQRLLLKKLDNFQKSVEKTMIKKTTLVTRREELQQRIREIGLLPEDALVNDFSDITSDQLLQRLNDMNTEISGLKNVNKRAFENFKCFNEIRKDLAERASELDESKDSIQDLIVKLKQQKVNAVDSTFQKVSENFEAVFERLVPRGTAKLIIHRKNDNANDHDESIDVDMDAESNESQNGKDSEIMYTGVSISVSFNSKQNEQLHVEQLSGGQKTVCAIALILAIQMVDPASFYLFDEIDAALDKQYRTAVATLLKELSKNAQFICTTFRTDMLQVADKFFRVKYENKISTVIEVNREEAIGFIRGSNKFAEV
Test: cross-linking; in vivo BMOE cross-link of cysteine pairs in yeast cells arrested in late G1 by non-degradable Sic1(9m); Scc1-PK immunoprecipitated, western blot, band intensities quantified
Conditions: partners not purified

B1: Scc2 D369C (natural protein, S. cerevisiae, UniProt Q04002 1-1493, looked up)
chain: MSYPGKDKNIPGRIIEALEDLPLSYLVPKDGLAALVNAPMRVSLPFDKTIFTSADDGRDVNINVLGTANSTTSSIKNEAEKERLVFKRPSNFTSSANSVDYVPTNFLEGLSPLAQSVLSTHKGLNDSINIEKKSEIVSRPEAKHKLESVTSNAGNLSFNDNSSNKKTKTSTGVTMTQANLAEQYLNDLKNILDIVGFDQNSAEIGNIEYWLQLPNKKFVLTTNCLTKLQMTIKNITDNPQLSNSIEITWLLRLLDVMVCNIKFSKSSLKMGLDDSMLRYIALLSTIVLFNIFLLGKNDSNLHRESYIMEPVNFLSDLIESLKILTIEYGSLKIEFDTFQEALELLPKYIRNGPFLDDNVTAKLVYIFSCLLMNNDIEATTNIQFQSFWDNVKRISSDILVSLFGSFDQQRGFIIEELLSHIEKLPTKRIQKKLRKVGNQNIYITDFTFTLMSMLENINCYSFCNQMKDIAPENIDLLKNEYKKQEEFLFNIVEHINDTILERFFKNPSALRYVIDNFVQDLLLLISSPQWPVTEKILSSLLKRLLSVYSPSMQVSANIETICLQLIGNIGSTIFDIKCSTRDHEDNNLIKMINYPETLPHFFKSFEECIAYNETIKCRRSATRFLWNLRLGTILILEEYTKDAKEQIITVDNELKKILEQIKDGGLGPELENREADFSTIKLDYFSILHAFELLNLYDPYLKLILSLLAKDKIKLRSTAIKCLSMLASKDKVILSNPMVKETIHRRLNDSSASVKDAILDLVSINSSYFEFYQQINNNYNDDSIMVRKHVLRINEKMYDETNDIVTKVYVIARILMKIEDEEDNIIDMARLILLNRWILKVHEVLDQPEKLKEISSSVLLVMSRVAIMNEKCSQLFDLFLNFYLLNKEAHSKEAYDKITHVLTILTDFLVQKIVELNSDDTNEKNSIVDKQNFLNLLAKFADSTVSFLTKDHITALYPYMVSDEKSDFHYYILQVFRCTFEKLANFKQKFLYDLETTLLSRLPKMNVREIDEAMPLIWSVATHRHDTARVAKACSSCLSHLHPYINKANNEEAAIVVDGKLQRLIYLSTGFARFCFPKPSNDKIAFLQEGETLYEHITKCLLVLSKDKITHVIRRVAVKNLTKLCGNHPKLFNSRHVLHLLDKEFQSDQLDIKLVILESLYDLFLLEERKSVRNTGVNSTLSSNSILKKKLLKTNRVEFANDGVCSALATRFLDNILQLCLLRDLKNSLVAIRLLKLILKFGYTNPSHSIPTVIALFASTSQYIRHVAYELLEDLFEKYETLVFSSLSRGVTKAIHYSIHTDEKYYYKHDHFLSLLEKLCGTGKKNGPKFFKVLKRIMQSYLDDITDLTSTNSSVQKSIFVLCTNISNITFVSQYDLVSLLKTIDLTTDRLKEVIMDEIGDNVSSLSVSEEKLSGIILIQLSLQDLGTYLLHLYGLRDDVLLLDIVEESELKNKQLPAKKPDISKFSAQLENIEQYSSNGKLLTYFRKHVKDT
notes: Scc2, S. cerevisiae; source: S. cerevisiae W303, in vivo, whole-cell extract
crosslink relative to wild type: ~70%
